Assay results: patent US8663642B2, “Anti-CD70 antibody-drug conjugates and their use for the treatment and prevention of cancer and immune disorders” (priority 2003, dated 2014)

Columns and labels:
[1] = system: Caki-1 cells; experiment: 3H-TdR proliferation assay, RCC lines; assay type: cell-based, human; conditions: Caki-1, 3H-TdR incorporation, 96 hours
[2] = system: CD70^+ RCC lines; experiment: 3H-TdR proliferation assay, panel of RCC lines; assay type: cell-based, human; conditions: CD70^+ RCC lines tested
[3] = system: PBMCs stimulated with irradiated allogeneic CESS cells; experiment: Mixed lymphocyte reaction (3H-TdR); assay type: cell-based, human; conditions: MLR
[4] = system: CD70^− Hs 835.T cells; experiment: 3H-TdR proliferation assay, CD70-negative RCC line; assay type: cell-based, human; conditions: CD70^− Hs 835.T, compared with CD70^+ RCC lines
[5] = system: activated T cell clones; experiment: Proliferation of activated T cell clones (3H-TdR); assay type: cell-based, human
[6] = system: Caki-1 tumors; experiment: Caki-1 subcutaneous xenograft model of RCC; assay type: in vivo, nude mice; parameters: average tumor size: dose or concentration left out as unconfirmed
Description: Tumors were initiated in nude mice by implanting tissue tumor blocks (30 mm^3 in size) containing Caki-1 cells. Treatment began when average tumor size within a treatment group was around 100 mm^3. In the upper panel, treatment for the IgG and 1F6 groups began 17 days post implantation (filled arrow), while treatment for the 1F6-vcAFP and IgG-vcAFP groups began 25 days post implantation (open arrow). Indicated doses of either unconjugated mAbs or their ADCs were given for one course on a q4d×4 schedule.
Using xenografts of the Caki-1 line in nude mice, the […] antitumor activity of 1F6-vcAFP was tested. To establish Caki-1 tumors, nude mice were injected subcutaneously with 5×10^6 Caki-1 cells in 0.2 ml PBS. […] Caki-1-containing tumors were excised from tumor bearing mice and tumor tissue blocks of approximately 30 mm^3 were prepared. Naive nude mice to be used for evaluating in vivo antitumor activity of anti-CD70 ADC were each implanted subcutaneously with one tumor block of 30 mm^3. […] Treatment was initiated when the average tumor size within a group was approximately 100 mm^3 (FIG. 12, arrows).

B1: 1F6-vcAFP: anti-CD70 mAb 1F6 linked to auristatin phenylalanine phenylenediamine by the valine-citrulline (vc) dipeptide linker (conjugate)
VH: QIQLVQSGPEVKKPGETVKISCKASGYTFTNYGMNWVKQAPGKGLKWMGWINTYTGEPTYADAFKGRFAFSLETSASTAYLQINNLKNEDTATYFCARDYGDYGMDYWGQGTSVTVSS
VL: DIVLTQSPASLAVSLGQRATISCRASKSVSTSGYSFMHWYQQKPGQPPKLLIYLASNLESGVPARFSGSGSGTDFTLNIHPVEEEDAATYYCQHSREVPWTFGGGTKLEIKR
modifications: non-natural residues
notes: anti-CD70 mAb 1F6 linked to auristatin phenylalanine phenylenediamine by the valine-citrulline (vc) dipeptide linker
B1 was tested, and the “concentration at which maximal proliferation inhibitory effects were achieved” value [1] was “lower than 0.1 μg/ml”, the “IC50 values for proliferation inhibition” value [2] was 2 to 247 ng/mL and the relative activity [3] was “more active than 1F6-vcMMAE”. For the same molecule, the “IC50, T cell proliferation” value ([3]; 5-day culture) was “approximately 0.1 μg/ml”, the “effect on T cell proliferation” value ([3]; 5-day culture) was “substantially inhibited T cell proliferation” and the “IC50 values for proliferation inhibition” value [4] was “Substantially higher IC50 values”. The relative activity ([5]; T cell clones) was “more active than 1F6-vcVMMAE”, the “IC50, proliferation” value ([5]; all 3 clones) was “below 0.05 μg/ml” and the average tumor size ([6]; 1, 56 days after treatment initiation) was under 600 mm^3. The average tumor size ([6]; 3, 70 days after treatment initiation) was “under 200 mm^3” and the “therapeutic activity / tumor growth” value ([6]; Caki-1 xenograft, q4d×4) was “significantly inhibited tumor growth”.
